# Source: US20230203108
# T1: Recombinant Human Serpin B9/SERPINB9 (C-6His) (Novoprotein, CJ32), P50453
# T1 chain: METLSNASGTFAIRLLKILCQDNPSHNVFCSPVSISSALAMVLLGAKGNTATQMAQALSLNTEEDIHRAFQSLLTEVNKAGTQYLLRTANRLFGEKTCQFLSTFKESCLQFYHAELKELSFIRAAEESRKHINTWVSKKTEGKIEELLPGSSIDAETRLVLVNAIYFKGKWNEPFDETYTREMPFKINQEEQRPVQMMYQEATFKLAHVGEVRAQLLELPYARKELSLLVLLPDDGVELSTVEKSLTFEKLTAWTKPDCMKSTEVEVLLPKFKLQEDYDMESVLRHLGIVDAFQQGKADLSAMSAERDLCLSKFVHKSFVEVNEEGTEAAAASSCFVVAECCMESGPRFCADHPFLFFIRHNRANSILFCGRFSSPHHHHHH
# Biological target: T1, Recombinant Human Serpin B9/SERPINB9 …
row,Protein,"protease activity (cleavage of Ac-IEPD-pNA, absorbance at 405 nm) after 1 h at 37 C with 0.5 uM PI-9, relative to wild-type granzyme B"
1,"granzyme B variant K44F, L46E, K155P, K172L, S175I, K200R (protein) IIGGHEAKPHSRPYMAYLMIWDQFSEKRCGGFLIRDDFVLTAAHCWGSSINVTLGAHNIKEQEPTQQFIPVKRPIPHPAYNPKNFSNDIMLLQLERKAKRTRAVQPLRLPSNKAQVKPGQTCSVAGWGQTAPLGPHSHTLQEVKMTVQEDRLCEIDLRHYYDSTIELCVGDPEIKKTSFRGDSGGPLVCNKVAQGIVSYGRNNGMPPRACTKVSSFVHWIKKTMKRY",the variants maintained high protease activity even in the presence of inhibitors
2,"granzyme B variant K44L, L46Q, K155P, K172L, S175I, K200R (protein) IIGGHEAKPHSRPYMAYLMIWDQLSQKRCGGFLIRDDFVLTAAHCWGSSINVTLGAHNIKEQEPTQQFIPVKRPIPHPAYNPKNFSNDIMLLQLERKAKRTRAVQPLRLPSNKAQVKPGQTCSVAGWGQTAPLGPHSHTLQEVKMTVQEDRLCEIDLRHYYDSTIELCVGDPEIKKTSFRGDSGGPLVCNKVAQGIVSYGRNNGMPPRACTKVSSFVHWIKKTMKRY",the variants maintained high protease activity even in the presence of inhibitors
3,"granzyme B variant K44F, R48K, K155P, K172L, S175I, K200R (protein) IIGGHEAKPHSRPYMAYLMIWDQFSLKKCGGFLIRDDFVLTAAHCWGSSINVTLGAHNIKEQEPTQQFIPVKRPIPHPAYNPKNFSNDIMLLQLERKAKRTRAVQPLRLPSNKAQVKPGQTCSVAGWGQTAPLGPHSHTLQEVKMTVQEDRLCEIDLRHYYDSTIELCVGDPEIKKTSFRGDSGGPLVCNKVAQGIVSYGRNNGMPPRACTKVSSFVHWIKKTMKRY",the variants maintained high protease activity even in the presence of inhibitors
4,"granzyme B variant K44L, L46I, K155P, K172L, S175I, K200R (protein) IIGGHEAKPHSRPYMAYLMIWDQLSIKRCGGFLIRDDFVLTAAHCWGSSINVTLGAHNIKEQEPTQQFIPVKRPIPHPAYNPKNFSNDIMLLQLERKAKRTRAVQPLRLPSNKAQVKPGQTCSVAGWGQTAPLGPHSHTLQEVKMTVQEDRLCEIDLRHYYDSTIELCVGDPEIKKTSFRGDSGGPLVCNKVAQGIVSYGRNNGMPPRACTKVSSFVHWIKKTMKRY",the variants maintained high protease activity even in the presence of inhibitors
5,"granzyme B variant K44F, L46Q, K155P, K172L, S175I, K200R (protein) IIGGHEAKPHSRPYMAYLMIWDQFSQKRCGGFLIRDDFVLTAAHCWGSSINVTLGAHNIKEQEPTQQFIPVKRPIPHPAYNPKNFSNDIMLLQLERKAKRTRAVQPLRLPSNKAQVKPGQTCSVAGWGQTAPLGPHSHTLQEVKMTVQEDRLCEIDLRHYYDSTIELCVGDPEIKKTSFRGDSGGPLVCNKVAQGIVSYGRNNGMPPRACTKVSSFVHWIKKTMKRY",the variants maintained high protease activity even in the presence of inhibitors
6,"granzyme B variant K44L, L46F, K155P, K172L, S175I, K200R (protein) IIGGHEAKPHSRPYMAYLMIWDQLSFKRCGGFLIRDDFVLTAAHCWGSSINVTLGAHNIKEQEPTQQFIPVKRPIPHPAYNPKNFSNDIMLLQLERKAKRTRAVQPLRLPSNKAQVKPGQTCSVAGWGQTAPLGPHSHTLQEVKMTVQEDRLCEIDLRHYYDSTIELCVGDPEIKKTSFRGDSGGPLVCNKVAQGIVSYGRNNGMPPRACTKVSSFVHWIKKTMKRY",the variants maintained high protease activity even in the presence of inhibitors
7,"granzyme B variant K44F, L46F, K155P, K172L, S175I, K200R (protein) IIGGHEAKPHSRPYMAYLMIWDQFSFKRCGGFLIRDDFVLTAAHCWGSSINVTLGAHNIKEQEPTQQFIPVKRPIPHPAYNPKNFSNDIMLLQLERKAKRTRAVQPLRLPSNKAQVKPGQTCSVAGWGQTAPLGPHSHTLQEVKMTVQEDRLCEIDLRHYYDSTIELCVGDPEIKKTSFRGDSGGPLVCNKVAQGIVSYGRNNGMPPRACTKVSSFVHWIKKTMKRY",the variants maintained high protease activity even in the presence of inhibitors
8,"granzyme B variant K44L, R48E, K155P, K172L, S175I, K200R (protein) IIGGHEAKPHSRPYMAYLMIWDQLSLKECGGFLIRDDFVLTAAHCWGSSINVTLGAHNIKEQEPTQQFIPVKRPIPHPAYNPKNFSNDIMLLQLERKAKRTRAVQPLRLPSNKAQVKPGQTCSVAGWGQTAPLGPHSHTLQEVKMTVQEDRLCEIDLRHYYDSTIELCVGDPEIKKTSFRGDSGGPLVCNKVAQGIVSYGRNNGMPPRACTKVSSFVHWIKKTMKRY",the variants maintained high protease activity even in the presence of inhibitors
9,"granzyme B variant K44L, R48K, K155P, K172L, S175I, K200R (protein) IIGGHEAKPHSRPYMAYLMIWDQLSLKKCGGFLIRDDFVLTAAHCWGSSINVTLGAHNIKEQEPTQQFIPVKRPIPHPAYNPKNFSNDIMLLQLERKAKRTRAVQPLRLPSNKAQVKPGQTCSVAGWGQTAPLGPHSHTLQEVKMTVQEDRLCEIDLRHYYDSTIELCVGDPEIKKTSFRGDSGGPLVCNKVAQGIVSYGRNNGMPPRACTKVSSFVHWIKKTMKRY",the variants maintained high protease activity even in the presence of inhibitors
10,"granzyme B variant K44F, R48E, K155P, K172L, S175I, K200R (protein) IIGGHEAKPHSRPYMAYLMIWDQFSLKECGGFLIRDDFVLTAAHCWGSSINVTLGAHNIKEQEPTQQFIPVKRPIPHPAYNPKNFSNDIMLLQLERKAKRTRAVQPLRLPSNKAQVKPGQTCSVAGWGQTAPLGPHSHTLQEVKMTVQEDRLCEIDLRHYYDSTIELCVGDPEIKKTSFRGDSGGPLVCNKVAQGIVSYGRNNGMPPRACTKVSSFVHWIKKTMKRY",the variants maintained high protease activity even in the presence of inhibitors
11,"granzyme B variant K44L, L46E, K155P, K172L, S175I, K200R (protein) IIGGHEAKPHSRPYMAYLMIWDQLSEKRCGGFLIRDDFVLTAAHCWGSSINVTLGAHNIKEQEPTQQFIPVKRPIPHPAYNPKNFSNDIMLLQLERKAKRTRAVQPLRLPSNKAQVKPGQTCSVAGWGQTAPLGPHSHTLQEVKMTVQEDRLCEIDLRHYYDSTIELCVGDPEIKKTSFRGDSGGPLVCNKVAQGIVSYGRNNGMPPRACTKVSSFVHWIKKTMKRY",the variants maintained high protease activity even in the presence of inhibitors
12,"granzyme B variant K44F, L46I, K155P, K172L, S175I, K200R (protein) IIGGHEAKPHSRPYMAYLMIWDQFSIKRCGGFLIRDDFVLTAAHCWGSSINVTLGAHNIKEQEPTQQFIPVKRPIPHPAYNPKNFSNDIMLLQLERKAKRTRAVQPLRLPSNKAQVKPGQTCSVAGWGQTAPLGPHSHTLQEVKMTVQEDRLCEIDLRHYYDSTIELCVGDPEIKKTSFRGDSGGPLVCNKVAQGIVSYGRNNGMPPRACTKVSSFVHWIKKTMKRY",the variants maintained high protease activity even in the presence of inhibitors
